Biological target: LGF2
Test: two-hybrid; BacterioMatch II bacterial two-hybrid in E. coli reporter cells; bait in pBT as λcI fusion, prey in pTRG as RNAPα fusion; 30 ng each of bait and prey vector; HIS3 reporter, cfu on selective screening medium with 3-AT; three repeats, mean ± 1 SD

**Q.** Gal11^P (domain or fragment) was tested. Which cfu on selective screening medium (with 3-AT) did it give?
**A.** 1000 cfu

From publication PMC4315436
